# In patent US10100114B2, “Antibodies specific for TROP-2 and their uses” (RINAT NEUROSCIENCE CORP., priority 2011, dated 2018):
# Positions count from the first letter of the chain named. In names and notes the source's numbering stands. Like-named read-outs stand apart in the source and are kept apart here.
# B1: h7E6SVG-LCQ04/K222R-vc0101: h7E6SVG K222R with light chain LCQ04 tag conjugated with AcLys-vc-PABC-0101 (conjugate)
# VH: QVQLQESGPGLVKPSETLSLTCTVSGGSISSYGVHWIRQPPGKGLEWIGVIWTSGVTDYNSALMGRVTISVDTSKNQFSLKLSSVTAADTAVYYCARDGDYDRYTMDYWGQGTLVTVSS
# VL: DIVMTQSPDSLAVSLGERATINCRASKSVSTSGYSYMHWYQQKPGQPPKLLIYLASNLESGVPDRFSGSGSGTDFTLTISSLQAEDVAVYYCQHSRELPYTFGQGTKLEIK
# B2: h7E6_SVGN: humanized anti-Trop-2 antibody, VL SEQ ID NO: 7, VH SEQ ID NO: 5 (antibody, V domains shown)
# VH: B1 VH
# VL: B1 VL with G33N
# B3: h7E6-L-TG1-vcMMAD: h7E6_L hIgG1 with TG1 tag conjugated with AcLys-vcMMAD (conjugate)
# VH: B1 VH with S54G, V56S, G65S
# VL: B1 VL with G33L
# B4: h7E6-SVGN-TG1-vcMMAD: h7E6_SVGN hIgG1 with TG1 tag conjugated with AcLys-vcMMAD (conjugate)
# VH: B1 VH
# VL: B1 VL with G33N
# B5: h7E6-SVGL-TG1-vcMMAD: h7E6_SVGL hIgG1 with TG1 tag conjugated with AcLys-vcMMAD (conjugate)
# VH: B1 VH
# VL: B1 VL with G33L
# B6: h7E6_N: humanized anti-Trop-2 7E6 antibody, presumably VH SEQ ID NO: 4 with VL_N SEQ ID NO: 7 (antibody, V domains shown)
# VH: B1 VH with S54G, V56S, G65S
# VL: B1 VL with G33N
# B7: h7E6: humanized anti-Trop-2 antibody, VL SEQ ID NO: 3, VH SEQ ID NO: 4 (antibody, V domains shown)
# VH: B1 VH with S54G, V56S, G65S
# VL: B1 VL
# B8: h7E6-WT-TG1-vcMMAD: h7E6-WT hIgG1 with TG1 tag conjugated with AcLys-vcMMAD (conjugate)
# VH: B1 VH with S54G, V56S, G65S
# VL: B1 VL
# B9: h7E6-N-TG1-vcMMAD: h7E6_N hIgG1 with TG1 tag conjugated with AcLys-vcMMAD (conjugate)
# VH: B1 VH with S54G, V56S, G65S
# VL: B1 VL with G33N
# B10: h7E6_L: humanized anti-Trop-2 antibody comprising SEQ ID NOs: 4 and 6 (antibody, V domains shown)
# VH: B1 VH with S54G, V56S, G65S
# VL: B1 VL with G33L
# B11: h7E6_SVGL: humanized anti-Trop-2 antibody, VL SEQ ID NO: 6, VH SEQ ID NO: 5 (antibody, V domains shown)
# VH: B1 VH
# VL: B1 VL with G33L
# B12: h6G11: humanized anti-Trop-2 antibody, VL SEQ ID NO: 10, VH SEQ ID NO: 11 (antibody, V domains shown)
# VH: QVQLVQSGAEVKKPGASVKVSCKASGYTFTSYWINWVRQAPGQGLEWMGNIYPSDSYSNYNQKFKDRVTMTRDTSTSTVYMELSSLRSEDTAVYYCARGSSFDYWGQGTLVTVSS
# VL: EIVLTQSPATLSLSPGERATLSCRASQTIGTSIHWYQQKPGQAPRLLIYYASESISGIPARFSGSGSGTDFTLTISSLEPEDFAVYYCQQSNSWPFTFGQGTKLEIK
# B13: h6G11_FKG_SF: humanized anti-Trop-2 antibody, VL SEQ ID NO: 12, VH SEQ ID NO: 13 (antibody, V domains shown)
# VH: B12 VH with Y52F, Q62K, S101G
# VL: B12 VL with Q89S, N92F
# Columns and labels:
# BxPC3 xenograft = assay: In vivo efficacy of humanized Trop-2 ADCs, pancreatic tumor BxPC3 xenograft model; design: species or system CB17/SCID mice; conditions: single dose, tail vein; FIGS. 9A-9C
# Description: In vivo efficacy studies of Trop-2 ADCs were performed with target-expressing BxPC3 xenograft model. Two million BxPC3 pancreatic cancer cells were implanted subcutaneously into 5-8 weeks old CB17/SCID mice until the tumor sizes reached between 300-400 mm^3. […] Tumor volume was measured once a week by a Caliper device and calculated with the following formula: Tumor volume=(length×width^2)/2. Studies were terminated before their tumor volumes reached 2000 mm^3.
# [1] = tested on: SW620 cells (Trop-2 non-expressing); assay: Cytotoxicity of ADCs (CellTiter-Glo), SW620; type: cell-based
# Description: Target expressing (A431, BxPC3, CAPAN-2 and Colo205) or non-expressing (SW620) cells were seeded on white walled clear bottom plates at 2000 cells/well for 24 hours before treatment. Cells were treated with 4 fold serially diluted antibody-drug conjugates in triplicates. Cell viability was determined by CellTiter-Glo® Luminescent Cell Viability Assay 96 (Promega, Madison Wis.) 96 hours after treatment. Relative cell viability was determined as percentage of untreated control. IC50 was calculated by Prism software.
# 2-methylalanyl-N-[(3R,4S,5S)-3-methoxy-1-{(2S)-2-[(1R,2R)-1-methoxy-2-methyl-3-oxo-3-{[(1S)-2-phenyl-1-(1,3-thiazol-2-yl)ethyl]amino}propyl]pyrrolidin-1-yl}-5-methyl-1-oxoheptan-4-yl]-N-methyl-L-valinamide is a novel auristatin, as described in U.S. Application Nos. 61/561,255 and 61/676,423. Method of conjugating Trop-2 antibodies using transglutaminase tags is described in Example 9. Target expressing or non-expressing (SW620) cells were seeded on white walled clear bottom plates at 2000 (A431, BxPC3, NCI-H292, NCI-H1650, MDA-MB-468 and SW620), 2500 (Calu-3) or 3000 (OVCAR3 and SKBR3) cells per well for 24 hours before treatment. Cells were treated with 4 fold serially diluted antibody-drug conjugates in triplicates. Cell viability was determined by CellTiter-Glo® Luminescent Cell Viability Assay 96 (Promega, Madison, Wis.) 96 hours after treatment. Relative cell viability was determined as percentage of untreated control. IC50 was calculated by GraphPad Prism 5 software and expressed as concentration (nM) of total Ab.
# SW620 (Trop-2 −) cells = assay: Flow cytometry binding, SW620 cells; type: cell-based; conditions: 1 ug antibody
# Description: For A431 cell staining, 200,000 cells were incubated with 0.5 ug antibody in 100 uL binding buffer (PBS (Phosphate Buffered Saline)+0.5% BSA (Bovine Serum Albumin)), followed by incubation with Dylight488-conjugated goat anti-human (Fab′)2-specific secondary antibody from Jackson immunoresearch Laboratories (West Grove, Pa.). For Colo205 and SW620 cells, 300,000 cells were used with 1 ug of primary antibody, followed by AlexaFluor 647 anti-human (Fab′)2-specific secondary antibody from Jackson immunoresearch Laboratories (West Grove, Pa.).
# Similar to Example 7a), binding of chimeric mouse and humanized anti-Trop-2 6G11 antibodies (expressed in human IgG1 subtype) were assessed on Trop-2 expressing (A431 and Colo205) and non-expressing (SW620) cells by flow cytometry. 300,000 cells were used with 1 ug of primary antibody, followed by AlexaFluor 647 anti-human (Fab′)2-specific secondary antibody.
# [2] = tested on: cynomolgus monkey Trop-2-hFc; assay: Biacore SPR affinity of chimeric and humanized 7E6 Fab, cynomolgus Trop-2; type: binding; conditions: recombinant Fab fragments injected over captured cynomolgus monkey Trop-2-hFc
# Description: (§1) The human Trop-2-hFc or cynomolgus monkey Trop-2-hFc proteins were captured on the CM5 EDA chip 37 sensor surface coupled with anti-human Fc.
# human Trop-2-hFc = target: T1, human Trop-2-hFc (Homo sapiens, UniProt P09758); assay: Biacore SPR affinity of chimeric and humanized 7E6 Fab, human Trop-2; type: binding; conditions: recombinant Fab fragments injected over captured human Trop-2-hFc
# T1 construct: Monomeric Trop-2 extracellular domain prepared from papain digestion of Trop-2-Fc fusion protein
# T1 sequence (P09758 27-274 limits assumed): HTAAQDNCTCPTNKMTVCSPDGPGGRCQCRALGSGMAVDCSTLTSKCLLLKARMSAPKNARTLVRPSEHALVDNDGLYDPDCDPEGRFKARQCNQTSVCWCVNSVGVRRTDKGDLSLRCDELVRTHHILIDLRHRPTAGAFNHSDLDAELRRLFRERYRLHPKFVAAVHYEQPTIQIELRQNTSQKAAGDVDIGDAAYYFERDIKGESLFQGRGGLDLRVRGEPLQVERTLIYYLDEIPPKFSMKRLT
# Description: as §1
# Human Trop-2-mFc = target: T2, Human Trop-2-mFc (Homo sapiens, UniProt P09758); assay: Biacore SPR affinity of humanized 6G11 Fab; type: binding; conditions: Fab fragments injected over captured human Trop-2-mFc
# T2 construct: Monomeric Trop-2 extracellular domain prepared from papain digestion of Trop-2-Fc fusion protein
# T2 sequence (P09758 27-274 limits assumed): T1 sequence (P09758 27-274 limits assumed)
# Description: The affinities of humanized 6G11 antibodies were measured on a surface plasmon resonance Biacore™ 2000 biosensor equipped with a research-grade CM5 sensor chip (Biacore™ AB, Uppsala, Sweden—now GE Healthcare). Human Trop-2-mFc protein was captured on the CM5 chip coupled with anti-mouse Fc. Human 6G11_WT or Human 6G11_FKG_SF chimeric Fab fragments were injected as 3 fold dilution series.
# [3] = Table 12, SW620 (Trop-2−), 96 hours after treatment
# [4] = Table 12, SW620 (Trop-2−), 96 hours after treatment, read-out: Ab-IC50
molecule,measurement,setting,value
B1,"tumor response, BxPC3 xenograft",BxPC3 xenograft,tumor regression
same,IC50,"[1]; Table 13, SW620, Trop2 expression −, 96 hours, concentration of total Ab",> 267 nM
B2,% positive,"SW620 (Trop-2 −) cells; Table 10, 300,000 cells",2.5%
same,MFI,"SW620 (Trop-2 −) cells; Table 10, 300,000 cells",140
B3,Ab-IC50,[1]; [3],8.535 µg/mL
same,IC50,[1]; [4],56.9 nM
B4,Ab-IC50,[1]; [3],10.410 µg/mL
same,IC50,[1]; [4],69.4 nM
B5,Ab-IC50,[1]; [3],10.800 µg/mL
same,IC50,[1]; [4],72 nM
B6,% positive,"SW620 (Trop-2 −) cells; Table 10, 300,000 cells",2.3%
same,MFI,"SW620 (Trop-2 −) cells; Table 10, 300,000 cells",151
B7,ka,[2],144000 M⁻¹ s⁻¹
same,kd,[2],0.00635 s⁻¹
same,ka,human Trop-2-hFc,139000 M⁻¹ s⁻¹
same,kd,human Trop-2-hFc,0.00294 s⁻¹
same,% positive,"SW620 (Trop-2 −) cells; Table 10, 300,000 cells",2.1%
same,MFI,"SW620 (Trop-2 −) cells; Table 10, 300,000 cells",143
B8,Ab-IC50,[1]; [3],10.330 µg/mL
same,IC50,[1]; [4],68.9 nM
B9,Ab-IC50,[1]; [3],11.150 µg/mL
same,IC50,[1]; [4],74.3 nM
B10,ka,[2],126000 M⁻¹ s⁻¹
same,kd,[2],0.000335 s⁻¹
same,ka,human Trop-2-hFc,130000 M⁻¹ s⁻¹
same,kd,human Trop-2-hFc,0.00015 s⁻¹
same,% positive,"SW620 (Trop-2 −) cells; Table 10, 300,000 cells",2.5%
same,MFI,"SW620 (Trop-2 −) cells; Table 10, 300,000 cells",158
B11,ka,[2],130000 M⁻¹ s⁻¹
same,kd,[2],7.42e-05 s⁻¹
same,ka,human Trop-2-hFc,131000 M⁻¹ s⁻¹
same,kd,human Trop-2-hFc,3.27e-05 s⁻¹
same,% positive,"SW620 (Trop-2 −) cells; Table 10, 300,000 cells",2.6%
same,MFI,"SW620 (Trop-2 −) cells; Table 10, 300,000 cells",135
B12,% positive,"SW620 (Trop-2 −) cells; Table 11, 300,000 cells",3.9%
same,MFI,"SW620 (Trop-2 −) cells; Table 11, 300,000 cells",154
same,ka,Human Trop-2-mFc,360000 M⁻¹ s⁻¹
same,kd,Human Trop-2-mFc,0.0096 s⁻¹
B13,% positive,"SW620 (Trop-2 −) cells; Table 11, 300,000 cells",2.5%
same,MFI,"SW620 (Trop-2 −) cells; Table 11, 300,000 cells",157
same,ka,Human Trop-2-mFc,640000 M⁻¹ s⁻¹
same,kd,Human Trop-2-mFc,0.00038 s⁻¹
